Test results reported in US20240010714A1 (MBRACE THERAPEUTICS, published 2024).

Columns and labels:
Assay in all cases: alanine scan, high-throughput flow cytometry
[1] = molecular target: T1, GRP78 alanine scan variant R261A (human, UniProt P11021 19-654)
T1 construct: Member of the GRP78 alanine scan library
Procedure: (§1) To characterize the binding properties of the antibodies described in Example 1 for GRP78, epitope mapping analysis was carried out by alanine scan mutagenesis. An alanine scan library of GRP78 was constructed. Each anti-GRP78 antibody was then screened for binding to each individual GRP78 variant, allowing identification of the target protein residues involved in antibody binding.
(§2) Binding of each test antibody to each GRP78 variant in the alanine scanning library was determined by high-throughput flow cytometry under high stringency conditions (e.g., increased pH, increased salinity, increased temperature and/or increased wash time). Also included in the experiment was a commercially-available monoclonal antibody, 1H11-1H7, which was verified to bind to WT GFR78 on cells and thus determined to be a suitable positive control under these conditions (Thermo Fisher Scientific, Waltham, MA). Antibody binding to each of the GRP78 variant as measured by the fluorescence signal (raw fluorescence data minus the background), was normalized to its binding to the wildtype (WT) GRP78. For each GRP78 variant, such normalized binding to the test antibodies was plotted relative to that to the control antibody.

[2] = molecular target: T2, GRP78 alanine scan variant R279A (human, UniProt P11021 19-654)
T2 construct: Member of the GRP78 alanine scan library
Procedure: as §1, §2

[3] = molecular target: T3, GRP78 alanine scan variant E329A (human, UniProt P11021 19-654)
T3 construct: Member of the GRP78 alanine scan library
Procedure: as §1, §2

[4] = molecular target: T4, GRP78 alanine scan variant H265A (human, UniProt P11021 19-654)
T4 construct: Member of the GRP78 alanine scan library
Procedure: as §1, §2

T1 sequence (P11021 19-654 R261A limits assumed): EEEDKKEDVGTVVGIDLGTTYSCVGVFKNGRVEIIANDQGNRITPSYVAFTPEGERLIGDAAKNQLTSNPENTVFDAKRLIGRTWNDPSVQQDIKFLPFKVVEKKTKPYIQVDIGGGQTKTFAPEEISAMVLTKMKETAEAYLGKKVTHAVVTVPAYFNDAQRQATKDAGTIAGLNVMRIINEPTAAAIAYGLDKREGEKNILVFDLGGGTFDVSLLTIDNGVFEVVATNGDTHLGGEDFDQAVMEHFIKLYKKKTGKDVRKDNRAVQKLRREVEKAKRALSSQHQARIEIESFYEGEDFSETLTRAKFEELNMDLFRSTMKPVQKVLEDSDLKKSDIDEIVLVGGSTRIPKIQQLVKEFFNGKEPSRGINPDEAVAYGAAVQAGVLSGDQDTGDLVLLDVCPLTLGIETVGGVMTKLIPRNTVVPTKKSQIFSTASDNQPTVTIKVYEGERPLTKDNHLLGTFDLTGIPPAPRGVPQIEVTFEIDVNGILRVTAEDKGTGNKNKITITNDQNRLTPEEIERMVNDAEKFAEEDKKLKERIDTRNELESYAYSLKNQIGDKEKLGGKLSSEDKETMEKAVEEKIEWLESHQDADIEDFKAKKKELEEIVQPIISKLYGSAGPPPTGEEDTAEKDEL
T4 sequence (P11021 19-654 H265A limits assumed): as the sequence (P11021 19-654 R261A limits assumed) above, with A243R, H247A counted along it
T3 sequence (P11021 19-654 E329A limits assumed): as the sequence (P11021 19-654 R261A limits assumed) above, with A243R, E311A counted along it
T2 sequence (P11021 19-654 R279A limits assumed): as the sequence (P11021 19-654 R261A limits assumed) above, with A243R, R261A counted along it

| binding normalized to wildtype (WT) GRP78 [1] | binding normalized to wildtype (WT) GRP78 [2] | binding normalized to wildtype (WT) GRP78 [3] | binding normalized to wildtype (WT) GRP78 [4] | Binder |
| --- | --- | --- | --- | --- |
| < 20% | < 20% |  |  | anti-GRP78 antibody clone F6 (antibody, IgG1, V domains shown, Fully human mAb formatted as full-length IgG1; also called F6 mAb; Anti-GRP78 (F6)) VH: QVQLQQSGPGLVKPPQTLSLTCAISGDSVSSNSAAWNWIRQSPSRGLEWLGRTYYRSKWYNDYAVSVKSRITINPDTSKNQFSLQLNSVTPEDTAVYYCARDPYYYDSSGYYYFDAFDIWGQGTMVTVSS VL: SYELTQPHSVSVAPGQTARITCGGDNIGSKSVHWYQQRPGQAPVLVVYDDSDRPSGIPERFSGSNSENTATLTISGVEAGDEADYYCQVWDSTSHHVVFGGGTKLTVL |
| < 20% |  | < 20% | < 20% | anti-GRP78 antibody clone B4 (antibody, IgG1, V domains shown, Fully human mAb formatted as full-length IgG1; also called B4 mAb) VH: QVRLQESGPGLVKPSQTLSLTCTVSGGSISSGGYYWSWIRQHPGKGLEWIGYIYYSGSTYYNPSLESRVTISVDTSKNQFSLKLSSVTAADTAVYYCARYSSIDAFEIWGQGTMVTVSS VL: SYVLTQPPSVSVAPGKTATITCGGDDIGSKSVHWYQQKPGQAPVLVVYDDGDRPSGIPERFSGSNSGNTATLAISRVEAGDEADYYCQVWDSSSDQYVFGSGTKLTVL |
